Source: patent US5945513

Target: soluble recombinant human gp39 (CD8-gp39 fusion protein) (murine; human)

inhibition of shgp39/IF5 or shgp39/PMA driven tonsillar B cell proliferation: 50 % inhibition
Substance: CD40-Ig (modified by L234F, L235E and G237A in the immunoglobulin domain) (from UniProt P25942) (Fc fusion)
